In PMC7272049:

Tests used:
[1] = target: B7-1 (Homo sapiens) (UniProt P33681); conditions: cited from earlier work
[2] = target: B7-1 (Mus musculus) (UniProt Q00609); conditions: cited from earlier work
[3] = target: mB7-1 mIgG2a (UniProt Q00609); experiment: FACS titration; conditions: cells expressing PD-L1 titrated with recombinant B7-1 Fc-fusion; anti-mouse Alexa 488 secondary; single-site binding model
[4] = target: mPD-1 mIgG2a (UniProt Q02242); experiment: FACS titration; conditions: cells expressing PD-L1 titrated with recombinant PD-1 Fc-fusion; anti-mouse Alexa 488 secondary; single-site binding model

Sequence of PD-L1 (Q9EP73 19-239): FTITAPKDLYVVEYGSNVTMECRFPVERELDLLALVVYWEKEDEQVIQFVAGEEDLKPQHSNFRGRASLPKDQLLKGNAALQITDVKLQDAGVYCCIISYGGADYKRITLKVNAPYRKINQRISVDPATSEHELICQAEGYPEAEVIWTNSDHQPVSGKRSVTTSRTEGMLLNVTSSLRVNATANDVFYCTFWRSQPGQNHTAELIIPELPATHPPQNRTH
Sequence of B7-1 (P33681 35-242): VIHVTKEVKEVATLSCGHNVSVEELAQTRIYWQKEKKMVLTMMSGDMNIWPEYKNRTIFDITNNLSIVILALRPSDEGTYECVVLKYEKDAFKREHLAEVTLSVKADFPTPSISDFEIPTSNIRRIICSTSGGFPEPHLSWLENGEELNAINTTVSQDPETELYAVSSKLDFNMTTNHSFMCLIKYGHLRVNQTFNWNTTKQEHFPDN

B7-1 (from UniProt P33681)
Kd [1]: 35 µM

PD-L1 (from UniProt Q9EP73)
Kd [2]: 1.6 µM

WT mPD-L1 mCherry (from UniProt Q9EP73) D28R
other: Bmax [3]: 73.1 | other: Bmax [4]: 93.4
